Assay results reported in publication PMC10579561, “Real flue gas CO2 hydrogenation to formate by an enzymatic reactor using O2- and CO-tolerant hydrogenase and formate dehydrogenase” (Frontiers in Bioengineering and Biotechnology, 2023).

Substrate: NC(=O)C1=CN([C@@H]2O[C@H](COP(=O)(O)OP(=O)(O)OC[C@H]3O[C@@H](n4cnc5c(N)ncnc54)[C@H](O)[C@@H]3O)[C@@H](O)[C@H]2O)C=CC1
Experiment: purified protein
Format: biochemical, Methylorubrum extorquens
Details: 100 mM sodium bicarbonate, N2-purged 200 mM Kpi pH 6.5 (no O2 or CO), NADH varied 6.25-100 µM, table header prints NAD+, free enzyme

B1: MeFDH1 (Methylorubrum extorquens AM1) (protein)
chain: MSEASGTVRSFAHPGRGRNVARAVPKGRQVDPHAKVEIEELLGTRPRQRDLLIEHLHLIQDTYGQISADHLAALADEMSLAFAEVFETATFYAHFDVVKEGEADIPRLTIRVCDSITCAMFGADELLETLQRELASDAVRVVRAPCVGLCDHAPAVEVGHNFLHRADLASVRAAVEAEDTHAHIPTYVDYDAYRAGGGYATLERLRSGELPVDDVLKVLDDGGLRGLGGAGFPTGRKWRSVRGEPGPRLMAVNGDEGEPGTFKDQLYLNTDPHRFLEGMLIGAHVVEAADVYIYLRDEYPISREILAREIAKLPEGGTRIHLRRGAGAYICGEESSLIESLEGKRGLPRHKPPFPFQVGLFNRPTLINNIETLFWVRDLIERGAEWWKSHGRNGRVGLRSYSVSGRVKEPGVKLAPAGLTIQELIDEYCGGISDGHSFAAYLPGGASGGILPASMNDIPLDFGTLEKYGCFIGSAAVVILSDQDDVRGAALNLMKFFEDESCGQCTPCRSGTQKARMLMENGVWDTDLLGELAQCMRDASICGLGQAASNPVSTVIKYFPDLFPEPRAVAAE
notes: with Tungsten-containing formate dehydrogenase alpha subunit
- Km: 26.38 ± 1.16 µM
- kcat: 2.27 ± 0.064 s⁻¹
- kcat/Km: 86200 ± 3000 M⁻¹ s⁻¹
